# From ChEMBL document CHEMBL4482315, “In vivo imaging of sulfotransferases” (2013)
# Values joined by “and” are separate entries in the source; they are usually repeats but may differ in a detail not shown here. Equal values may be shown once.
# Experiments:
# not read = substrate: Oc1ccc2ccccc2c1; experiment: not read
# [1] = substrate: CC(=O)Nc1ccc(-c2nc3ccc(O)cc3s2)cc1; experiment: (§1) Substrate activity at SULT1E1 (unknown origin) expressed in baculovirus infected Sf9 cells assessed as substrate Km incubated for 15 mins using [35S-]PAPS as sulfate donor by TLC analysis; design: species or system Homo sapiens
# [2] = substrate: CN(C)c1ccc(-c2nc3cc(O)ccc3s2)cc1; experiment: as §1; design: species or system Homo sapiens
# [3] = substrate: CN(C)c1ccc(-c2nc3ccc(O)cc3s2)cc1; experiment: as §1; design: species or system Homo sapiens
# [4] = substrate: CNc1ccc(-c2nc3cc(O)ccc3s2)cc1; experiment: as §1; design: species or system Homo sapiens
# [5] = substrate: CNc1ccc(-c2nc3ccc(O)cc3s2)cc1; experiment: as §1; design: species or system Homo sapiens
# [6] = substrate: COc1ccc(-c2nc3ccc(O)cc3s2)cc1; experiment: as §1; design: species or system Homo sapiens
# [7] = substrate: CS(=O)(=O)c1ccc(-c2nc3ccc(O)cc3s2)cc1; experiment: as §1; design: species or system Homo sapiens
# [8] = substrate: Cc1nc2cc(O)ccc2s1; experiment: as §1; design: species or system Homo sapiens
# [9] = substrate: Cc1nc2ccc(O)cc2s1; experiment: as §1; design: species or system Homo sapiens
# [10] = substrate: N#Cc1ccc(-c2nc3ccc(O)cc3s2)cc1; experiment: as §1; design: species or system Homo sapiens
# [11] = substrate: Nc1ccc(-c2nc3ccc(O)cc3s2)cc1; experiment: as §1; design: species or system Homo sapiens
# [12] = substrate: O=[N+]([O-])c1ccc(-c2nc3ccc(O)cc3s2)cc1; experiment: as §1; design: species or system Homo sapiens
# [13] = substrate: Oc1ccc2ccoc2c1; experiment: as §1; design: species or system Homo sapiens
# [14] = substrate: Oc1ccc2ccsc2c1; experiment: as §1; design: species or system Homo sapiens
# [15] = substrate: Oc1ccc2nc(-c3ccc(F)cc3)sc2c1; experiment: as §1; design: species or system Homo sapiens
# [16] = substrate: Oc1ccc2nc(-c3ccc(I)cc3)sc2c1; experiment: as §1; design: species or system Homo sapiens
# [17] = substrate: Oc1ccc2nc(-c3ccccc3)sc2c1; experiment: as §1; design: species or system Homo sapiens
# [18] = substrate: Oc1ccc2ncoc2c1; experiment: as §1; design: species or system Homo sapiens
# [19] = substrate: Oc1ccc2ncsc2c1; experiment: as §1; design: species or system Homo sapiens
# [20] = substrate: Oc1ccc2occc2c1; experiment: as §1; design: species or system Homo sapiens
# [21] = substrate: Oc1ccc2sccc2c1; experiment: as §1; design: species or system Homo sapiens
# [22] = substrate: Cc1nc2cc(O)ccc2s1; experiment: (§2) Substrate activity at SULT1A3 (unknown origin) expressed in baculovirus infected Sf9 cells assessed as substrate Km incubated for 15 mins using [35S-]PAPS as sulfate donor by TLC analysis; design: species or system Homo sapiens
# [23] = substrate: Oc1ccc2[nH]ccc2c1; experiment: as §2; design: species or system Homo sapiens
# [24] = substrate: Oc1ccc2cc[nH]c2c1; experiment: as §2; design: species or system Homo sapiens
# [25] = substrate: Oc1ccc2ccoc2c1; experiment: as §2; design: species or system Homo sapiens
# [26] = substrate: Oc1ccc2ccsc2c1; experiment: as §2; design: species or system Homo sapiens
# [27] = substrate: Oc1ccc2ncoc2c1; experiment: as §2; design: species or system Homo sapiens
# [28] = substrate: Oc1ccc2ncsc2c1; experiment: as §2; design: species or system Homo sapiens
# [29] = substrate: Oc1ccc2occc2c1; experiment: as §2; design: species or system Homo sapiens
# [30] = substrate: Oc1ccc2sccc2c1; experiment: as §2; design: species or system Homo sapiens
# [31] = substrate: CN(C)c1ccc(-c2nc3cc(O)ccc3s2)cc1; experiment: (§3) Substrate activity at SULT1A1 (unknown origin) expressed in baculovirus infected Sf9 cells assessed as substrate Km incubated for 15 mins using [35S-]PAPS as sulfate donor by TLC analysis; design: species or system Homo sapiens
# [32] = substrate: CNc1ccc(-c2nc3cc(O)ccc3s2)cc1; experiment: as §3; design: species or system Homo sapiens
# [33] = substrate: Cc1nc2cc(O)ccc2s1; experiment: as §3; design: species or system Homo sapiens
# [34] = substrate: Cc1nc2ccc(O)cc2s1; experiment: as §3; design: species or system Homo sapiens
# [35] = substrate: Oc1ccc2[nH]ccc2c1; experiment: as §3; design: species or system Homo sapiens
# [36] = substrate: Oc1ccc2[nH]cnc2c1; experiment: as §3; design: species or system Homo sapiens
# [37] = substrate: Oc1ccc2cc[nH]c2c1; experiment: as §3; design: species or system Homo sapiens
# [38] = substrate: Oc1ccc2ccoc2c1; experiment: as §3; design: species or system Homo sapiens
# [39] = substrate: Oc1ccc2ccsc2c1; experiment: as §3; design: species or system Homo sapiens
# [40] = substrate: Oc1ccc2nc(-c3ccccc3)sc2c1; experiment: as §3; design: species or system Homo sapiens
# [41] = substrate: Oc1ccc2ncoc2c1; experiment: as §3; design: species or system Homo sapiens
# [42] = substrate: Oc1ccc2ncsc2c1; experiment: as §3; design: species or system Homo sapiens
# [43] = substrate: Oc1ccc2occc2c1; experiment: as §3; design: species or system Homo sapiens
# [44] = substrate: Oc1ccc2sccc2c1; experiment: as §3; design: species or system Homo sapiens
protein,measurement,setting,value
Sulfotransferase 2A1 (Homo sapiens) (protein) MSDDFLWFEGIAFPTMGFRSETLRKVRDEFVIRDEDVIILTYPKSGTNWLAEILCLMHSKGDAKWIQSVPIWERSPWVESEIGYTALSETESPRLFSSHLPIQLFPKSFFSSKAKVIYLMRNPRDVLVSGYFFWKNMKFIKKPKSWEEYFEWFCQGTVLYGSWFDHIHGWMPMREEKNFLLLSYEELKQDTGRTIEKICQFLGKTLEPEELNLILKNSSFQSMKENKMSNYSLLSVDYVVDKAQLLRKGVSGDWKNHFTVAQAEDFDKLFQEKMADLPRELFPWE,Km,not read,254 µM
same,Vmax,not read,0.00019 µmol/min/mg
Sulfotransferase 1E1 (Homo sapiens) (protein) MNSELDYYEKFEEVHGILMYKDFVKYWDNVEAFQARPDDLVIATYPKSGTTWVSEIVYMIYKEGDVEKCKEDVIFNRIPFLECRKENLMNGVKQLDEMNSPRIVKTHLPPELLPASFWEKDCKIIYLCRNAKDVAVSFYYFFLMVAGHPNPGSFPEFVEKFMQGQVPYGSWYKHVKSWWEKGKSPRVLFLFYEDLKEDIRKEVIKLIHFLERKPSEELVDRIIHHTSFQEMKNNPSTNYTTLPDEIMNQKLSPFMRKGITGDWKNHFTVALNEKFDKHYEQQMKESTLKFRTEI,Vmax,not read,0.00339 µmol/min/mg and 0.00486 µmol/min/mg
same,Km,[1],2.36 µM
same,Vmax,[1],0.00204 µmol/min/mg
same,Km,[2],0.39 µM
same,Vmax,[2],0.00098 µmol/min/mg
same,Km,[3],1.33 µM
same,Vmax,[3],0.00149 µmol/min/mg
same,Km,[4],1.31 µM
same,Vmax,[4],0.00182 µmol/min/mg
same,Km,[5],1.6 µM
same,Vmax,[5],0.0021 µmol/min/mg
same,Km,[6],0.9 µM
same,Vmax,[6],0.00197 µmol/min/mg
same,Km,[7],1.32 µM
same,Vmax,[7],0.00357 µmol/min/mg
same,Km,[8],15.9 µM
same,Vmax,[8],0.0047 µmol/min/mg
same,Km,[9],6.96 µM
same,Vmax,[9],0.00329 µmol/min/mg
same,Km,[10],0.25 µM
same,Vmax,[10],0.00433 µmol/min/mg
same,Km,[11],1.63 µM
same,Vmax,[11],0.00278 µmol/min/mg
same,Km,[12],0.12 µM
same,Vmax,[12],0.00343 µmol/min/mg
same,Km,[13],90.9 µM
same,Vmax,[13],0.00272 µmol/min/mg
same,Km,[14],11.5 µM
same,Vmax,[14],0.00287 µmol/min/mg
same,Km,[15],0.92 µM
same,Vmax,[15],0.00416 µmol/min/mg
same,Km,[16],0.52 µM
same,Vmax,[16],0.00295 µmol/min/mg
same,Km,[17],0.99 µM
same,Vmax,[17],0.00318 µmol/min/mg
same,Km,[18],525 µM
same,Vmax,[18],0.0033 µmol/min/mg
same,Km,[19],61.3 µM
same,Vmax,[19],0.0023 µmol/min/mg
same,Km,[20],177 µM
same,Vmax,[20],0.00179 µmol/min/mg
same,Km,[21],38 µM
same,Vmax,[21],0.00291 µmol/min/mg
same,Km,[22],1040 µM
same,Vmax,[22],0.0101 µmol/min/mg
same,Km,[23],575 µM
same,Vmax,[23],0.00366 µmol/min/mg
same,Km,[24],2710 µM
same,Vmax,[24],0.0195 µmol/min/mg
same,Km,[25],377 µM
same,Vmax,[25],0.00888 µmol/min/mg
same,Km,[26],157 µM
same,Vmax,[26],0.00982 µmol/min/mg
same,Km,[27],1070 µM
same,Vmax,[27],0.0115 µmol/min/mg
same,Km,[28],280 µM
same,Vmax,[28],0.00809 µmol/min/mg
same,Km,[29],385 µM
same,Vmax,[29],0.00834 µmol/min/mg
same,Km,[30],251 µM
same,Vmax,[30],0.00612 µmol/min/mg
Sulfotransferase 1A1 (Homo sapiens) (protein) MELIQDTSRPPLEYVKGVPLIKYFAEALGPLQSFQARPDDLLISTYPKSGTTWVSQILDMIYQGGDLEKCHRAPIFMRVPFLEFKAPGIPSGMETLKDTPAPRLLKTHLPLALLPQTLLDQKVKVVYVARNAKDVAVSYYHFYHMAKVHPEPGTWDSFLEKFMVGEVSYGSWYQHVQEWWELSRTHPVLYLFYEDMKENPKREIQKILEFVGRSLPEETVDFVVQHTSFKEMKKNPMTNYTTVPQEFMDHSISPFMRKGMAGDWKTTFTVAQNERFDADYAEKMAGCSLSFRSEL,Km,not read,0.17 µM
same,Vmax,not read,0.0146 µmol/min/mg
same,Km,[31],0.04 µM
same,Vmax,[31],0.011 µmol/min/mg
same,Km,[32],0.012 µM
same,Vmax,[32],0.0039 µmol/min/mg
same,Km,[33],5.9 µM
same,Vmax,[33],0.0193 µmol/min/mg
same,Km,[34],6.2 µM
same,Vmax,[34],0.0103 µmol/min/mg
same,Km,[35],6.62 µM
same,Vmax,[35],0.0128 µmol/min/mg
same,Km,[36],19.3 µM
same,Vmax,[36],0.0085 µmol/min/mg
same,Km,[37],0.23 µM
same,Vmax,[37],0.0203 µmol/min/mg
same,Km,[38],0.18 µM
same,Vmax,[38],0.0265 µmol/min/mg
same,Km,[39],0.08 µM
same,Vmax,[39],0.00978 µmol/min/mg
same,Km,[40],0.045 µM
same,Vmax,[40],0.00525 µmol/min/mg
same,Km,[41],5.5 µM
same,Vmax,[41],0.0132 µmol/min/mg
same,Km,[42],2.08 µM
same,Vmax,[42],0.0103 µmol/min/mg
same,Km,[43],0.62 µM
same,Vmax,[43],0.00987 µmol/min/mg
same,Km,[44],0.14 µM
same,Vmax,[44],0.0112 µmol/min/mg
